Source: paper doi:10.1101/2021.04.21.440798 (bioRxiv, 2021)

Target: GFP-T6BP (TAX1BP1 / TRAF6-Binding Protein fused to GFP) (UniProt Q86VP1 1-789)
Assay: co-IP

GFP-T6BP (TAX1BP1 / TRAF6-Binding Protein fused to GFP), sequence (Q86VP1 whole entry, the tested form may be a part): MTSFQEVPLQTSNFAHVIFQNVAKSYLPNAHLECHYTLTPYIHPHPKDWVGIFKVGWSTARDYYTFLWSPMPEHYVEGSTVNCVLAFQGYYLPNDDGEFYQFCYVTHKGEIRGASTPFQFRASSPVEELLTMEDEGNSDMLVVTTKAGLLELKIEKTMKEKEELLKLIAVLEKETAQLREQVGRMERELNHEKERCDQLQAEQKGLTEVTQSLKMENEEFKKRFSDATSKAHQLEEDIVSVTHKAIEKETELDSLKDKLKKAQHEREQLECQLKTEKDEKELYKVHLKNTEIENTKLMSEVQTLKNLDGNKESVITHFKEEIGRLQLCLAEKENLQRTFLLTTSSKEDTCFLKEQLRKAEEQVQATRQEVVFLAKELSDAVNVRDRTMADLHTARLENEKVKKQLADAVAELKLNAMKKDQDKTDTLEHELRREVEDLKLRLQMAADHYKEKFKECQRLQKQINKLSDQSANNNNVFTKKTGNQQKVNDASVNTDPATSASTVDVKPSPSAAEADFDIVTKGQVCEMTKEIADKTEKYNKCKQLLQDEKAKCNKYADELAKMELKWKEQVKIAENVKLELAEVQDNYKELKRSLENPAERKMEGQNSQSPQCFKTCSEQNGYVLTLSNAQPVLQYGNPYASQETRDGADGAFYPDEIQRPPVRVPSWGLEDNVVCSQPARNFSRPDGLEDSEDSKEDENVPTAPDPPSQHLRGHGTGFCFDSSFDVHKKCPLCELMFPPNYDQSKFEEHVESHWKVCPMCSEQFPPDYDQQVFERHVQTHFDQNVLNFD

B1: Calnexin (CANX), endogenous (natural protein)
chain: HDGHDDDVIDIEDDLDDVIEEVEDSKPDTTAPPSSPKVTYKAPVPTGEVYFADSFDRGTLSGWILSKAKKDDTDDEIAKYDGKWEVEEMKESKLPGDKGLVLMSRAKHHAISAKLNKPFLFDTKPLIVQYEVNFQNGIECGGAYVKLLSKTPELNLDQFHDKTPYTIMFGPDKCGEDYKLHFIFRHKNPKTGIYEEKHAKRPDADLKTYFTDKKTHLYTLILNPDNSFEILVDQSVVNSGNLLNDMTPPVNPSREIEDPEDRKPEDWDERPKIPDPEAVKPDDWDEDAPAKIPDEEATKPEGWLDDEPEYVPDPDAEKPEDWDEDMDGEWEAPQIANPRCESAPGCGVWQRPVIDNPNYKGKWKPPMIDNPSYQGIWKPRKIPNPDFFEDLEPFRMTPFSAIGLELWSMTSDIFFDNFIICADRRIVDDWANDGWGLKKAADGAAEPGVVGQMIEAAEERPWLWVVYILTVALPVFLVILFCCSGKKQTSGMEYKKTDAPQPDVKEEEEEKEEEKDKGDEEEEGEEKLEEKQKSDAEEDGGTVSQEEEDRKPKAEEDEILNRSPRNRKPRRE
For B1, the “fold enrichment over the GFP control” value was 3 fold.
